Reference: the supplement of paper PMC7125110
± gives the standard error. Variants at the floor of the assay were thinned out.

B1: glmS ribozyme (parent)
chain: AUAAAAGCGCCAGAACUACAGAAAUGUAGUUGACGAGGAGGAGGUUUAUCGAAUUUUCGGCGGAUGCCUCCAAA

Tests used:
Settings in all cases: with glucosamine-6-phosphate
glucosamine-6-phosphate [1] = variants of: B1; assay: self-cleavage kobs at 40 uM GlcN6P; higher = faster cleavage; RNA array
Summary of the method: (§1)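 Barcoded ribozyme variants, transcribed in situ by E. coli RNA polymerase on sequenced MiSeq chips, were followed via a hybridised Cy3 probe at 37 °C. Glucosamine-6-phosphate ranged from 40 μM to 10 mM in HEPES/KCl/Mg(OAc)2 buffer. kobs came from decay fits to per-tile medians, and kcat and KM from weighted Michaelis–Menten fits.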

glucosamine-6-phosphate [2] = variants of: B1; assay: self-cleavage kobs at 10000 uM GlcN6P; higher = faster cleavage; RNA array
Summary of the method: as §1

glucosamine-6-phosphate [3] = variants of: B1; assay: self-cleavage kobs at 640 uM GlcN6P; higher = faster cleavage; RNA array
Summary of the method: as §1

glucosamine-6-phosphate [4] = variants of: B1; assay: self-cleavage kobs at 2500 uM GlcN6P; higher = faster cleavage; RNA array
Summary of the method: as §1

glucosamine-6-phosphate [5] = variants of: B1; assay: self-cleavage kobs at 160 uM GlcN6P; higher = faster cleavage; RNA array
Summary of the method: as §1

Variant	self-cleavage kobs at 40 uM GlcN6P (glucosamine-6-phosphate [1]) [s⁻¹]	self-cleavage kobs at 10000 uM GlcN6P (glucosamine-6-phosphate [2]) [s⁻¹]	self-cleavage kobs at 640 uM GlcN6P (glucosamine-6-phosphate [3]) [s⁻¹]	self-cleavage kobs at 2500 uM GlcN6P (glucosamine-6-phosphate [4]) [s⁻¹]	self-cleavage kobs at 160 uM GlcN6P (glucosamine-6-phosphate [5]) [s⁻¹]
C34A C50G C68G	0.000116 ± 2.4e-05	6.65e-05 ± 1.4e-05	–	–	–
A36C G60U C67A	< 1e-05	< 1e-05	–	–	–
A36G G41A G51C C61G C67U	< 1e-05	< 1e-05	–	–	–
A36G G60U G66U	< 1e-05	< 1e-05	< 1e-05	< 1e-05	–
G35U G37C U56G	< 1e-05	–	< 1e-05	< 1e-05	–
C34G G37C C61U U65A	< 1e-05	< 1e-05	–	–	–
A36C G37A G59C C71U	< 1e-05	< 1e-05	–	< 1e-05	–
G35U G38C	< 1e-05	< 1e-05	< 1e-05	< 1e-05	–
G37A G51A A53C	< 1e-05	< 1e-05	–	–	–
A33U G44U	< 1e-05	< 1e-05	< 1e-05	–	< 1e-05
A36G C50U U57A	< 1e-05	< 1e-05	–	–	–
G35U	< 1e-05	< 1e-05	< 1e-05	< 1e-05	< 1e-05
G35A A36G A48G A53G	< 1e-05	< 1e-05	–	–	–
C34U A42G	< 1e-05	< 1e-05	–	–	< 1e-05
C34A G60A C71A	< 1e-05	< 1e-05	–	–	–
A33U G41A U46C	< 1e-05	< 1e-05	–	–	–
A36C G63U	< 1e-05	–	< 1e-05	–	–
C34U G40C	< 1e-05	< 1e-05	< 1e-05	–	–
G35C U65A	< 1e-05	< 1e-05	< 1e-05	–	–
G35U G41U U45C	< 1e-05	< 1e-05	–	–	–
A33U U45G G51A	< 1e-05	< 1e-05	–	–	–
A36C C58G U69G	7.56e-05 ± 2.1e-05	5.12e-05 ± 1.9e-05	–	–	–
G35C U46G C70G	< 1e-05	< 1e-05	< 1e-05	< 1e-05	–

Variant	self-cleavage kobs at 40 uM GlcN6P (glucosamine-6-phosphate [1]) [s⁻¹]	self-cleavage kobs at 10000 uM GlcN6P (glucosamine-6-phosphate [2]) [s⁻¹]	self-cleavage kobs at 640 uM GlcN6P (glucosamine-6-phosphate [3]) [s⁻¹]	self-cleavage kobs at 2500 uM GlcN6P (glucosamine-6-phosphate [4]) [s⁻¹]	self-cleavage kobs at 160 uM GlcN6P (glucosamine-6-phosphate [5]) [s⁻¹]
G35C G41A	< 1e-05	< 1e-05	< 1e-05	< 1e-05	< 1e-05
G35C G41U	< 1e-05	< 1e-05	< 1e-05	< 1e-05	< 1e-05
G35U C68A	< 1e-05	< 1e-05	< 1e-05	< 1e-05	< 1e-05
G35C A39C	< 1e-05	< 1e-05	< 1e-05	< 1e-05	< 1e-05
G35C U45G	< 1e-05	< 1e-05	–	< 1e-05	< 1e-05
A36C G40U C67U	< 1e-05	< 1e-05	< 1e-05	–	< 1e-05
A36C A53G	< 1e-05	< 1e-05	–	–	–
A36C U45G	< 1e-05	< 1e-05	< 1e-05	< 1e-05	< 1e-05
A36C U45A	< 1e-05	< 1e-05	–	–	< 1e-05
G37A G38U C71U	< 1e-05	–	–	–	–
C34A U56C A64C	< 1e-05	–	–	–	–
C34U G62C	< 1e-05	< 1e-05	< 1e-05	< 1e-05	< 1e-05
A36C G43A U55A C71U	< 1e-05	< 1e-05	< 1e-05	< 1e-05	–
G35A U47G	< 1e-05	< 1e-05	< 1e-05	< 1e-05	< 1e-05
C34G G44C	< 1e-05	< 1e-05	< 1e-05	< 1e-05	–
A36U G44U	< 1e-05	< 1e-05	< 1e-05	< 1e-05	< 1e-05
C34G A42C C71U	< 1e-05	–	–	< 1e-05	–
G35A A52G	< 1e-05	< 1e-05	–	< 1e-05	–
A33U G43U C50G G51U	< 1e-05	–	–	–	–
A36G C58U	< 1e-05	< 1e-05	< 1e-05	< 1e-05	–
A36G C58A	< 1e-05	< 1e-05	–	< 1e-05	–
A33U G41A C50A A53C G60C	< 1e-05	< 1e-05	–	–	–
A36G G44U	< 1e-05	< 1e-05	< 1e-05	–	< 1e-05

Variant	self-cleavage kobs at 40 uM GlcN6P (glucosamine-6-phosphate [1]) [s⁻¹]	self-cleavage kobs at 10000 uM GlcN6P (glucosamine-6-phosphate [2]) [s⁻¹]	self-cleavage kobs at 640 uM GlcN6P (glucosamine-6-phosphate [3]) [s⁻¹]	self-cleavage kobs at 2500 uM GlcN6P (glucosamine-6-phosphate [4]) [s⁻¹]	self-cleavage kobs at 160 uM GlcN6P (glucosamine-6-phosphate [5]) [s⁻¹]
G37A A42U C70A	< 1e-05	–	–	–	–
A36U G43A U56A	< 1e-05	< 1e-05	< 1e-05	–	–
G35A A64U C71A	< 1e-05	–	–	–	–
G35U U47A U57C	< 1e-05	–	–	–	–
A36U C58U	< 1e-05	< 1e-05	< 1e-05	< 1e-05	–
C34A C70G	< 1e-05	–	–	< 1e-05	–
A33U G41A	< 1e-05	4.33e-05 ± 9.1e-06	< 1e-05	–	–
A36U C50G A64G C70G	0.000457 ± 0.00012	0.000194 ± 4.9e-05	–	0.000298 ± 0.00013	–
A36U A48U G51U U65G	< 1e-05	–	–	–	–
G35U A64C	< 1e-05	< 1e-05	< 1e-05	< 1e-05	< 1e-05
A36U G59U	< 1e-05	< 1e-05	< 1e-05	–	–
A36U G59C	< 1e-05	< 1e-05	< 1e-05	–	–
A36U C61G A64C	< 1e-05	–	–	–	–
G37C C50U C70A	0.00229 ± 0.00095	–	–	–	–
G35C A52C	< 1e-05	< 1e-05	< 1e-05	< 1e-05	< 1e-05
G37C C50G C58G C67G	0.00014 ± 3.9e-05	0.000593 ± 0.00017	0.000349 ± 8.1e-05	6.52e-05 ± 2.2e-05	0.00039 ± 0.00012
C34G A53C U69A	< 1e-05	< 1e-05	–	–	–
G35C A64G C67U	< 1e-05	< 1e-05	–	–	–
C34G U55C	< 1e-05	< 1e-05	< 1e-05	< 1e-05	< 1e-05
G37C G60U	< 1e-05	< 1e-05	–	–	< 1e-05
C34G A52U U55A	< 1e-05	< 1e-05	–	< 1e-05	–
C34A C58U C71U	< 1e-05	< 1e-05	–	–	–
C34A U45G C68U C71A	< 1e-05	< 1e-05	–	< 1e-05	< 1e-05

Variant	self-cleavage kobs at 40 uM GlcN6P (glucosamine-6-phosphate [1]) [s⁻¹]	self-cleavage kobs at 10000 uM GlcN6P (glucosamine-6-phosphate [2]) [s⁻¹]	self-cleavage kobs at 640 uM GlcN6P (glucosamine-6-phosphate [3]) [s⁻¹]	self-cleavage kobs at 2500 uM GlcN6P (glucosamine-6-phosphate [4]) [s⁻¹]	self-cleavage kobs at 160 uM GlcN6P (glucosamine-6-phosphate [5]) [s⁻¹]
A36U G43C	< 1e-05	–	< 1e-05	< 1e-05	< 1e-05
A36G C50G U56G C61A	0.000189 ± 6.2e-05	0.000459 ± 0.00011	–	–	–
C34A U57C	< 1e-05	< 1e-05	–	< 1e-05	< 1e-05
C34G A39U C70U	< 1e-05	–	–	–	–
G35A A48U	< 1e-05	< 1e-05	< 1e-05	< 1e-05	< 1e-05
C34A U47A	< 1e-05	–	–	–	–
C34G C50A A53G	< 1e-05	–	–	–	–
C34A U65G	< 1e-05	< 1e-05	< 1e-05	< 1e-05	< 1e-05
A36G G38A C58A	< 1e-05	< 1e-05	< 1e-05	–	–
A36G G51A	< 1e-05	–	< 1e-05	–	< 1e-05
A36C G43A U47C	< 1e-05	–	–	–	–
C34U A53G C68G	7.28e-05 ± 3.2e-05	0.000655 ± 0.00017	–	–	–
G37A G59U C61U	< 1e-05	< 1e-05	–	–	–
C34U U49A C58A U69A	0.000146 ± 5e-05	4.63e-05 ± 2e-05	0.000567 ± 0.00014	–	–
A36U C50U A52G C70G	0.000113 ± 3.1e-05	–	0.000329 ± 7.9e-05	0.000173 ± 8.2e-05	–
G37C A39G	< 1e-05	3.63e-05 ± 7.3e-06	–	–	–
A36U C68G C70U	8.4e-05 ± 2.2e-05	0.000213 ± 4.7e-05	–	–	–
A36U U47C	< 1e-05	< 1e-05	< 1e-05	–	< 1e-05
G35C U46G	< 1e-05	< 1e-05	< 1e-05	< 1e-05	< 1e-05
A33U G51U	< 1e-05	–	–	–	< 1e-05
A36C G59A C67A	< 1e-05	< 1e-05	–	–	–
